Reference: US20260184782A1 (TWIST BIOSCIENCE, published 2026)
Changes are numbered by the printed parent chain.

T1: human TIGIT-Fc (human, UniProt Q495A1 22-141, limits assumed)
T1 construct: not shown: Fc; not described
T1 sequence (looked up): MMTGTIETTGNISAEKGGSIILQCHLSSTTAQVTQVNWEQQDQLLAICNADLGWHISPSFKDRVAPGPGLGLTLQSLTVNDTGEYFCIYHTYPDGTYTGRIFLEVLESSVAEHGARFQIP

B1: TIGIT-SC56 (Fc fusion)
VHH: EVQLVESGGGLVQPGGSLRLSCAASGNTFSGGFMGWFRQAPGKEREWVASVLRGGYTWYADSVKGRFTISADNSKNTAYLQMNSLKPEDTAVYYCAHSKGYNWFDPWGQGTLVTVSS
notes: VHH-Fc
B2: TIGIT-SC86 (Fc fusion)
VHH: EVQLVESGGGLVQPGGSLRLSCAASGIIASDSAMGWFRQAPGKEREFVAAIRWSGKETWYADSVKGRFTISADNSKNTAYLQMNSLKPEDTAVYYCARWGGVTFGGVYPLEYWGQGTLVTVSS
notes: VHH-Fc
B3: TIGIT-SC88 (Fc fusion)
VHH: EVQLVESGGGLVQPGGSLRLSCAASGFTFSSDWMGWFRQAPGKEREFVAAINRSGHSTSYADSVKGRFTISADNSKNTAYLQMNSLKPEDTAVYYCARWGGVTFGGVYPLEYWGQGTLVTVSS
notes: VHH-Fc
B4: TIGIT-SC103 (Fc fusion)
VHH: EVQLVESGGGLVQPGGSLRLSCAASGTITSAVFMGWFRQAPGKEREFVAAISWSGGDTNYADSVKGRFTISADNSKNTAYLQMNSLKPEDTAVYYCARWGGITFGGVYPLDYWGQGTLVTVSS
notes: VHH-Fc
B5: TIGIT-SC66 (Fc fusion)
VHH: EVQLVESGGGLVQPGGSLRLSCAASGTTFSSAAMGWFRQAPGKEREWVASVLRGGYTWYADSVKGRFTISADNSKNTAYLQMNSLKPEDTAVYYCVTDPRQWLGHDYWGQGTLVTVSS
notes: VHH-Fc
B6: TIGIT-SC48 (Fc fusion)
VHH: EVQLVESGGGLVQPGGSLRLSCAASGRTSDIYGMGWFRQAPGKEREAVASIWRSGGNTYYADSVKGRFTISADNSKNTAYLQMNSLKPEDTAVYYCASSTLDVWGQGTLVTVSS
notes: VHH-Fc
B7: TIGIT-SC87 (Fc fusion)
VHH: EVQLVESGGGLVQPGGSLRLSCAASGSIDTINTMGWFRQAPGKEREFVAAITPSSRTTYYVDSVKGRFTISADNSKNTAYLQMNSLKPEDTAVYYCARWGGVTFGGVYPLEYWGQGTLVTVSS
notes: VHH-Fc
B8: TIGIT-SC94 (Fc fusion)
VHH: EVQLVESGGGLVQPGGSLRLSCAASGSSFSAYAMGWFRQAPGKEREFVSLINWSSGKTIYADSVKGRFTISADNSKNTAYLQMNSLKPEDTAVYYCARVRIFNHVHRPSYYFDYWGQGTLVTVSS
notes: VHH-Fc
B9: TIGIT-SC102 (Fc fusion)
VHH: EVQLVESGGGLVQPGGSLRLSCAASGSTFSKHHAMGWFRQAPGKEREFVAAIRWSGGNTYYADSVKGRFTISADNSKNTAYLQMNSLKPEDTAVYYCARWYSSSGDYYYMDVWGQGTLVTVSS
notes: VHH-Fc
B10: TIGIT-SC85 (Fc fusion)
VHH: EVQLVESGGGLVQPGGSLRLSCAASGRTFSPYTMGWFRQAPGKEREWVAGISQSGGSTAYADSVKGRFTISADNSKNTAYLQMNSLKPEDTAVYYCARDLNAMGDAYDIWGQGTLVTVSS
notes: VHH-Fc
B11: TIGIT-SC55 (Fc fusion)
VHH: EVQLVESGGGLVQPGGSLRLSCAASGFPFDDYAMGWFRQAPGKERELVAVIRWTGMNTHYADSVKGRFTISADNSKNTAYLQMNSLKPEDTAVYYCAKGIAVAGAFDYWGQGTLVTVSS
notes: VHH-Fc
B12: TIGIT-SC81 (Fc fusion)
VHH: EVQLVESGGGLVQPGGSLRLSCAASGRSFKDDAMGWFRQAPGKEREFVAAISWSGDSTHYADSVKGRFTISADNSKNTAYLQMNSLKPEDTAVYYCARWVWASGTYWIDYWGQGTLVTVSS
notes: VHH-Fc
B13: TIGIT-SC49 (Fc fusion)
VHH: EVQLVESGGGLVQPGGSLRLSCAASGRTFIGYHMGWFRQAPGKEREFVAAISWTGESTLYADSVKGRFTISADNSKNTAYLQMNSLKPEDTAVYYCARDDYGDYRRYFQHWGQGTLVTVSS
notes: VHH-Fc
B14: TIGIT-SC89 (Fc fusion)
VHH: EVQLVESGGGLVQPGGSLRLSCAASGSMSSINAMGWFRQAPGKEREFVAAINYEGDRTYYADSVKGRFTISADNSKNTAYLQMNSLKPEDTAVYYCARWTRGLVSGTYYYYMDVWGQGTLVTVSS
notes: VHH-Fc
B15: TIGIT-SC90 (Fc fusion)
VHH: EVQLVESGGGLVQPGGSLRLSCAASGDTFSSKAMGWFRQAPGKEREFVAAIRWSVSSTYYADSVKGRFTISADNSKNTAYLQMNSLKPEDTAVYYCARWTRGLVSGTYYYYMDVWGQGTLVTVSS
notes: VHH-Fc
B16: TIGIT-SC79 (Fc fusion)
VHH: EVQLVESGGGLVQPGGSLRLSCAASGSILSINTMGWFRQAPGKEREFVAAITSAGGTTYYADSVKGRFTISADNSKNTAYLQMNSLKPEDTAVYYCARWHYDILTGYYWLDSWGQGTLVTVSS
notes: VHH-Fc
B17: TIGIT-SC99 (Fc fusion)
VHH: EVQLVESGGGLVQPGGSLRLSCAASGSIFSMNTMGWFRQAPGKEREFVGAINWSGGSTIYADSVKGRFTISADNSKNTAYLQMNSLKPEDTAVYYCARWDYDILTNYYWLEYWGQGTLVTVSS
notes: VHH-Fc
B18: TIGIT-SC80 (Fc fusion)
VHH: B16 VHH with S27N, L29P, S30P, T33A, T52N, S53Y, A54S, T57S
notes: VHH-Fc
B19: TIGIT-SC72 (Fc fusion)
VHH: EVQLVESGGGLVQPGGSLRLSCAASGGLTFSSYAMGWFRQAPGKEREFVAAISWSGGRTYYADSVKGRFTISADNSKNTAYLQMNSLKPEDTAVYYCARWSAKRHSDTMTYYMDVWGQGTLVTVSS
notes: VHH-Fc
B20: TIGIT-SC76 (Fc fusion)
VHH: EVQLVESGGGLVQPGGSLRLSCAASGFTFSDYAMGWFRQAPGKERELVARIGHDGSTDYADSVKGRFTISADNSKNTAYLQMNSLKPEDTAVYYCLGGLDPWGQGTLVTVSS
notes: VHH-Fc
B21: TIGIT-SC92 (Fc fusion)
VHH: EVQLVESGGGLVQPGGSLRLSCAASGSTIENYAMGWFRQAPGKEREFVAAIDWSGGSTYYADSVKGRFTISADNSKNTAYLQMNSLKPEDTAVYYCARWRSIWSGYDDYYYMDVWGQGTLVTVSS
notes: VHH-Fc
B22: TIGIT-SC93 (Fc fusion)
VHH: B21 VHH with G26S, S27R, I29V, E30S, N31S, Y32H, D52S, G56V, S57T
notes: VHH-Fc
B23: TIGIT-SC91 (Fc fusion)
VHH: B21 VHH with S27F, I29F, E30S, D52N, S54N, G55S, G56R
notes: VHH-Fc
B24: TIGIT-SC52 (Fc fusion)
VHH: EVQLVESGGGLVQPGGSLRLSCAASGFLFDSYAMGWFRQAPGKEREFVAAISTGGGWRTYADSVKGRFTISADNSKNTAYLQMNSLKPEDTAVYYCAKRGNDNWYFDLWGQGTLVTVSS
notes: VHH-Fc
B25: TIGIT-SC69 (Fc fusion)
VHH: EVQLVESGGGLVQPGGSLRLSCAASGGTFNGRAMGWFRQAPGKEREFVAAISSIGDTYYADSVKGRFTISADNSKNTAYLQMNSLKPEDTAVYYCARWRLDRRQGFYYAMDVWGQGTLVTVSS
notes: VHH-Fc
B26: TIGIT-SC73 (Fc fusion)
VHH: EVQLVESGGGLVQPGGSLRLSCAASGSSFSLADYAMGWFRQAPGKEREFVAAISYNVGTTYYADSVKGRFTISADNSKNTAYLQMNSLKPEDTAVYYCARWSAKRHSDTMTYYMDVWGQGTLVTVSS
notes: VHH-Fc
B27: TIGIT-SC71 (Fc fusion)
VHH: EVQLVESGGGLVQPGGSLRLSCAASGSIRSLNAMGWFRQAPGKEREFVAAINWDSARTYYADSVKGRFTISADNSKNTAYLQMNSLKPEDTAVYYCARWSAKRHSDTMTYYMDVWGQGTLVTVSS
notes: VHH-Fc
B28: TIGIT-SC100 (Fc fusion)
VHH: EVQLVESGGGLVQPGGSLRLSCAASGRTLSDRAMGWFRQAPGKEREFVAAITDNGGSTYYADSVKGRFTISADNSKNTAYLQMNSLKPEDTAVYYCARWYSSSGDYYYMDVWGQGTLVTVSS
notes: VHH-Fc
B29: TIGIT-SC101 (Fc fusion)
VHH: B28 VHH with L29F, D31S, R32Y, T52D, D53W, N54S, G55D
notes: VHH-Fc
B30: TIGIT-SC70 (Fc fusion)
VHH: EVQLVESGGGLVQPGGSLRLSCAASGRTFSSFAMGWFRQAPGKEREFVAAISGSGEDTYYADSVKGRFTISADNSKNTAYLQMNSLKPEDTAVYYCARWRLDRRQGFYYAMDVWGQGTLVTVSS
notes: VHH-Fc
B31: TIGIT-SC74 (Fc fusion)
VHH: EVQLVESGGGLVQPGGSLRLSCAASGRTFANNAMGWFRQAPGKEREFVAAINWSGGNTYYADSVKGRFTISADNSKNTAYLQMNSLKPEDTAVYYCAKWSYYGSGLYGMDVWGQGTLVTVSS
notes: VHH-Fc
B32: TIGIT-SC75 (Fc fusion)
VHH: B31 VHH with R27F, T28I, F29G, A30N, N31Y, N32H, N52R, G55D, N57S, T58S
notes: VHH-Fc
B33: TIGIT-SC96 (Fc fusion)
VHH: EVQLVESGGGLVQPGGSLRLSCAASGMTTIGPMGWFRQAPGKEREFVAAINWSGSSTVYADSVKGRFTISADNSKNTAYLQMNSLKPEDTAVYYCVTYSAYDFRNAWGQGTLVTVSS
notes: VHH-Fc

Biological target: T1, human TIGIT-Fc
Test: CD155 competition ELISA, single point; further: test concentration or dose not given here
Method: TIGIT/CD155 inhibition of VHH-Fcs were assessed using an ELISA assay (Table 10B). Briefly, human TIGIT-Fc was coated on a plate & then incubated with VHH-Fcs and human CD155-biotin. Bound CD155-biotin was detected using a streptavidin-HRP conjugate visualized with TMB. Strong inhibitors from the single point screen were titrated to determine EC50 (Table 10C).

| OD (450 nm) [OD] | Binder |
| --- | --- |
| 0.335 | B1 |
| 0.716 | B2 |
| 0.484 | B3 |
| 0.666 | B4 |
| 0.325 | B5 |
| 0.381 | B6 |
| 0.438 | B7 |
| 0.513 | B8 |
| 0.311 | B9 |
| 0.768 | B10 |
| 0.364 | B11 |
| 0.553 | B12 |
| 0.382 | B13 |
| 0.384 | B14 |
| 0.519 | B15 |
| 0.8 | B16 |
| 0.635 | B17 |

| OD (450 nm) [OD] | Binder |
| --- | --- |
| 0.508 | B18 |
| 0.394 | B19 |
| 0.673 | B20 |
| 0.593 | B21 |
| 0.307 | B22 |
| 0.484 | B23 |
| 0.351 | B24 |
| 0.666 | B25 |
| 0.405 | B26 |
| 0.868 | B27 |
| 0.692 | B28 |
| 0.394 | B29 |
| 0.64 | B30 |
| 0.649 | B31 |
| 0.652 | B32 |
| 0.677 | B33 |
